Test results published in paper PMC6353898 (2019).

Molecular target: EGFR recombinant human protein (human, UniProt P00533 25-645)
Assay: SPR

AEYDFYGPGNEGSW (designed binder) [Pep24]
Kd: 7.2 µM
